Substitutions are numbered along the chain they refer to. Names may count otherwise. Each block holds one molecule with its values, some of them ahead of it.
Legend:
[1] = Determination of binding constants of inhibitor (NNIC) in Model B detergent, Suc-AAPF-pNA read-out; type: biochemical; details: Ki of variant with the mutation relative to variant without the mutation; for Inhibitor-binding relative Kimutation, inhibitor binding in Model B: <1.0 beneficial
Experimental: (§1) Purified protease variants are pre-diluted to approximately 0.2 mg/ml in dilution buffer. 40 μl diluted protease is then mixed with 40 μl inhibitor solution (Z-Gly-Ala-NHCH(CH2C6H4pOH)C(OH)(SO3Na)—H, wherein Z is benzyloxycarbonyl) or 40 μl 4-FPBA solution in the well of a 96 well microtiter plate (Nunc F 96-MTP). […] After 10 min mixing of protease and inhibitor at room temperature, 30 μl of the mixture is transferred to a microtiter plate (Nunc U96 PP 0.5 ml) with 270 μl Model B detergent in the wells resulting in inhibitor concentrations of 0-30 μM and 4-FPBA concentrations of 0-6000 μM. Protease, inhibitor and detergent is mixed for 1 hour using magnetic bars for 1 hour at room temperature to reach equilibrium. Then 20 μl is transferred to a microtiter plate (Nunc F 96-MTP). 100 μl substrate solution is added and after 5 sec mixing absorbance at 405 nm is measured every 20 sec for 5 min on a SpectraMax Plus reader. Slope from linear regression of initial increase in absorbance at 405 nm is used for calculation of apparent binding constants.
(§2) It is assumed that protease and inhibitor react according to the equation: E+I ? EI
(§3) Where E is the protease, I is the inhibitor and EI is the protease-inhibitor complex. […] The concentration of enzyme-inhibitor in the detergent solution is then given by:
(§4) where Etot is the total protease concentration ([Etot]=[E]+[EI]), Itot is the total inhibitor concentration ([Itot]=[I]+[EI]), and Ki is the equilibrium binding constant for the reaction. The measured slopes V are given by:
(§5) where V0 is the slope without inhibitor added. To calculate apparent binding constant Ki least square fitting of measured slopes at various inhibitor concentrations to this equation is performed with Ki and V0 as variables.
The Ki for the parent protease and for each variant was calculated as described above
(§6) Having the Ki for each variant, it is possible to calculate the effect of a single mutation, if data are available for at least two variants that differ only by that mutation. In this case, the relative Ki for the mutation is calculated:
(§7) [formula] A lower Ki is desirable, as a satisfactory inhibition can be obtained at a lower inhibitor concentration, so beneficial mutations have a relative Ki<1.0 The following table show such relative Kimutation. Each row show: • a mutation (column 1: “Mutation”) • a protease variant (relative to SEQ ID NO: 2) that comprise the mutation from column 1 (column 2: “Variant with the mutation”) • another protease variant (relative to SEQ ID NO: 2), that differs from the one in column 2 only by not having the mutation in column 1 (column 3: “Variant without the mutation”) • Relative Kimutation for the mutation in column 1, in the context of the variant in column 3, measured in Model B detergent (column 4: “inhibitor binding in Model B”) • Relative Kimutation for the mutation in column 1, in the context of the variant in column 3, measured in Tris buffer at pH 8 (column 5: “inhibitor binding in Tris buffer pH 8”)
Ki were calculated as shown in Example 3. The Improvement Factor (IF) or Relative

[2] = Determination of binding constants of inhibitor in Tris buffer at pH 8; type: biochemical; details: Ki of variant with the mutation relative to variant without the mutation
Experimental: as §1, §2, §3, §4, §5, §6, §7

Inhibitor-binding relative Kimutation, inhibitor binding in Model B [1]: 0.93
Inhibitor-binding relative Kimutation, inhibitor binding in Tris buffer pH 8 [2]: 0.91
B1: K146N, S173P, S175P, F180Y: TY145 protease (SEQ ID NO 3) variant with these substitutions (protein, listed as Bacillus sp.)
chain: AVPSTQTPWGIKSIYNDQSITKTTGGSGIKVAVLDTGVYTSHLDLAGSAEQCKDFTQSNPLVDGSCTDRQGHGTHVAGTVLAHGGSNGQGVYGVAPQAKLWAYKVLGDNGSGYSDDIAAAIRHVADEASRTGSKVVINMSLGSSANDSLIASAVDYAYGKGVLIVAAAGNSGPGPNTIGYPGGLVNAVAVAALENVQQNGTYRVADFSSRGNPATAGDYIIQERDIEVSAPGASVESTWYTGGYNTISGTSMATPHVAGLAAKIWSANTSLSHSQLRTELQNRAKVYDIKGGIGAGTGDDYASGFGYPRVK

Inhibitor-binding relative Kimutation, inhibitor binding in Model B [1]: 0.47
B3: S173P, S175P, F180Y, R224G: TY145 protease (SEQ ID NO 3) variant with these substitutions (protein, listed as Bacillus sp.)
chain: B1 chain with N146K, R224G

Inhibitor-binding relative Kimutation, inhibitor binding in Model B [1]: 0.36
B4: S173P, S175P, F180Y, R224D: TY145 protease (SEQ ID NO 3) variant with these substitutions (protein, listed as Bacillus sp.)
chain: B1 chain with N146K, R224D

Inhibitor-binding relative Kimutation, inhibitor binding in Model B [1]: 0.23
Inhibitor-binding relative Kimutation, inhibitor binding in Tris buffer pH 8 [2]: 0.16
B5: K146W, S173P, S175P, F180Y: TY145 protease (SEQ ID NO 3) variant with these substitutions (protein, listed as Bacillus sp.)
chain: B1 chain with N146W

Inhibitor-binding relative Kimutation, inhibitor binding in Model B [1]: 0.50
B6: S173P, S175P, F180Y, L184W: TY145 protease (SEQ ID NO 3) variant with these substitutions (protein, listed as Bacillus sp.)
chain: B1 chain with N146K, L184W

Inhibitor-binding relative Kimutation, inhibitor binding in Model B [1]: 0.37
B10: S173P, S175P, F180Y, L184D: TY145 protease (SEQ ID NO 3) variant with these substitutions (protein, listed as Bacillus sp.)
chain: B1 chain with N146K, L184D

Inhibitor-binding relative Kimutation, inhibitor binding in Model B [1]: 0.50
B17: S173P, S175P, F180Y, R224S: TY145 protease (SEQ ID NO 3) variant with these substitutions (protein, listed as Bacillus sp.)
chain: B1 chain with N146K, R224S

Inhibitor-binding relative Kimutation, inhibitor binding in Model B [1]: 0.24
B18: S173P, S175P, F180Y, L184Y: TY145 protease (SEQ ID NO 3) variant with these substitutions (protein, listed as Bacillus sp.)
chain: B1 chain with N146K, L184Y

More lines, now with the values behind:

B2: S27K, S171N, S173P, G174R, S175P, F180Y, L184W, Q198E, T297P: TY145 protease (SEQ ID NO 3) variant with these substitutions (protein, listed as Bacillus sp.)
chain: B1 chain with S27K, N146K, S171N, G174R, L184W, Q198E, T297P
Inhibitor-binding relative Kimutation, inhibitor binding in Model B [1]: 0.57

B7: S27K, S171N, S173P, G174R, S175P, F180Y, L184Y, Q198E, T297P: TY145 protease (SEQ ID NO 3) variant with these substitutions (protein, listed as Bacillus sp.)
chain: B1 chain with S27K, N146K, S171N, G174R, L184Y, Q198E, T297P
Inhibitor-binding relative Kimutation, inhibitor binding in Model B [1]: 0.18

B8: S27K, V162T, S173P, G174K, S175P, F180Y, L184F, Q197K, Q198E, T297P: TY145 protease (SEQ ID NO 3) variant with these substitutions (protein, listed as Bacillus sp.)
chain: B1 chain with S27K, N146K, V162T, G174K, L184F, Q197K, Q198E, T297P
Inhibitor-binding relative Kimutation, inhibitor binding in Model B (Table 4b) [1]: 0.17

B9: S27K, S173P, G174K, S175P, F180Y, L184Y, Q197K, Q198E, T297P: TY145 protease (SEQ ID NO 3) variant with these substitutions (protein, listed as Bacillus sp.)
chain: B1 chain with S27K, N146K, G174K, L184Y, Q197K, Q198E, T297P
Inhibitor-binding relative Kimutation, inhibitor binding in Model B [1]: 0.32

B11: S27K, I121V, S171N, S173P, G174R, S175P, F180Y, Q198E, R224S, T297P: TY145 protease (SEQ ID NO 3) variant with these substitutions (protein, listed as Bacillus sp.)
chain: B1 chain with S27K, I121V, N146K, S171N, G174R, Q198E, R224S, T297P
Inhibitor-binding relative Kimutation, inhibitor binding in Model B [1]: 0.56

B12: S27K, S173P, G174K, S175P, F180Y, L184F, Q198E, N199K, T297P: TY145 protease (SEQ ID NO 3) variant with these substitutions (protein, listed as Bacillus sp.)
chain: B1 chain with S27K, N146K, G174K, L184F, Q198E, N199K, T297P
Inhibitor-binding relative Kimutation, inhibitor binding in Model B [1]: 0.36

B13: K146A, S173P, S175P, F180Y: TY145 protease (SEQ ID NO 3) variant with these substitutions (protein, listed as Bacillus sp.)
chain: B1 chain with N146A
Inhibitor-binding relative Kimutation, inhibitor binding in Model B [1]: 0.34
Inhibitor-binding relative Kimutation, inhibitor binding in Tris buffer pH 8 [2]: 0.29

B14: K146F, S173P, S175P, F180Y: TY145 protease (SEQ ID NO 3) variant with these substitutions (protein, listed as Bacillus sp.)
chain: B1 chain with N146F
Inhibitor-binding relative Kimutation, inhibitor binding in Model B [1]: 0.25
Inhibitor-binding relative Kimutation, inhibitor binding in Tris buffer pH 8 [2]: 0.19

B15: S27K, S173P, G174K, S175P, F180Y, L184F, Q198E, N199R, T297P: TY145 protease (SEQ ID NO 3) variant with these substitutions (protein, listed as Bacillus sp.)
chain: B1 chain with S27K, N146K, G174K, L184F, Q198E, N199R, T297P
Inhibitor-binding relative Kimutation, inhibitor binding in Model B [1]: 0.22

B16: S27K, S173P, G174K, S175P, F180Y, L184Y, Q198E, N199K, T297P: TY145 protease (SEQ ID NO 3) variant with these substitutions (protein, listed as Bacillus sp.)
chain: B1 chain with S27K, N146K, G174K, L184Y, Q198E, N199K, T297P
Inhibitor-binding relative Kimutation, inhibitor binding in Model B [1]: 0.21

B19: S27K, S171N, S173P, G174R, S175P, F180Y, G182A, L184F, Q198E, N199K, R224G, T297P: TY145 protease (SEQ ID NO 3) variant with these substitutions (protein, listed as Bacillus sp.)
chain: B1 chain with S27K, N146K, S171N, G174R, G182A, L184F, Q198E, N199K, R224G, T297P
Inhibitor-binding relative Kimutation, inhibitor binding in Model B (Table 4b) [1]: 0.69

B20: S27K, S171N, S173P, G174R, S175P, F180Y, Q198E, N199K, R224G, T297P: TY145 protease (SEQ ID NO 3) variant with these substitutions (protein, listed as Bacillus sp.)
chain: B1 chain with S27K, N146K, S171N, G174R, Q198E, N199K, R224G, T297P
Inhibitor-binding relative Kimutation, inhibitor binding in Model B [1]: 0.74

B21: S27K, S171D, S173P, G174R, S175P, G182A, L184F, Q198E, N199K, R224G, T297P: TY145 protease (SEQ ID NO 3) variant with these substitutions (protein, listed as Bacillus sp.)
chain: AVPSTQTPWGIKSIYNDQSITKTTGGKGIKVAVLDTGVYTSHLDLAGSAEQCKDFTQSNPLVDGSCTDRQGHGTHVAGTVLAHGGSNGQGVYGVAPQAKLWAYKVLGDNGSGYSDDIAAAIRHVADEASRTGSKVVINMSLGSSAKDSLIASAVDYAYGKGVLIVAAAGNDGPRPNTIGFPAGFVNAVAVAALENVQEKGTYRVADFSSRGNPATAGDYIIQEGDIEVSAPGASVESTWYTGGYNTISGTSMATPHVAGLAAKIWSANTSLSHSQLRTELQNRAKVYDIKGGIGAGPGDDYASGFGYPRVK
Inhibitor-binding relative Kimutation, inhibitor binding in Model B (Table 4b) [1]: 0.49

From patent US10400230B2, “Protease variants and polynucleotides encoding same” (NOVOZYMES A/S, priority 2014, dated 2019)
